In publication PMC8140157, “RTEL1 influences the abundance and localization of TERRA RNA” (Nature Communications, 2020):

Tests used:
[1] = target: the molecule itself; test: SEC-MALS; 200-300 µg protein on Superdex 200 10/300 GL, 0.3 ml per minute, 50 mM Hepes pH 7.5, 1 mM TCEP, 150 or 300 mM NaCl; dimer to monomers
RTEL1∆762 [2] = target: T1, RTEL1∆762 (human, UniProt Q9NZ71-6 762-1300); test: fluorescence anisotropy; RNA folded in 100 mM KCl; text: <10 nM, at detection limit; 20 mM Tris pH 7.5, 50 mM KCl, 0.5 mM TCEP, 0.5 mM MgCl2, 10% glycerol, 0.1% IGEPAL, room temperature 30 min; oligos refolded in 10 mM Tris pH 7.5, 100 mM KCl; EMSA legends give 150 or 300 mM KCl; details: protein: recombinant; tags: 6xHis; chain copies: 2; label: 5' fluorescein; G4
T1 sequence: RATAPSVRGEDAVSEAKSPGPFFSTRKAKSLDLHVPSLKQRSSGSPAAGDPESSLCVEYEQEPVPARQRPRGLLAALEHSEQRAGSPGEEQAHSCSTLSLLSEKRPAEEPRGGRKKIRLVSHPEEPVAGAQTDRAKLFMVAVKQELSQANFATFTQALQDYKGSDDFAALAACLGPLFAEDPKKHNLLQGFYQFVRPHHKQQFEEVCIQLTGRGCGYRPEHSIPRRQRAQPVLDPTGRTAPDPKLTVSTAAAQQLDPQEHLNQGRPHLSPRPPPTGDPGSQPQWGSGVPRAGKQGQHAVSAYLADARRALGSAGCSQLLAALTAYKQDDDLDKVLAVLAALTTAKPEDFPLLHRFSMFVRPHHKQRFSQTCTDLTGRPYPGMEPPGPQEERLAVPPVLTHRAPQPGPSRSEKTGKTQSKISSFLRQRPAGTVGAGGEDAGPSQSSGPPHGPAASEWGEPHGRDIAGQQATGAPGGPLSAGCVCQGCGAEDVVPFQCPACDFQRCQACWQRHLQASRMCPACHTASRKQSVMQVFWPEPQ

RTEL1∆1143 = target: T2, RTEL1∆1143 (human, UniProt Q9NZ71-6 1143-1300); test: EMSA; negligible at 5 uM protein; 150 mM KCl; 20 mM Tris pH 7.5, 50 mM KCl, 0.5 mM TCEP, 0.5 mM MgCl2, 10% glycerol, 0.1% IGEPAL, room temperature 30 min; oligos refolded in 10 mM Tris pH 7.5, 100 mM KCl; EMSA legends give 150 or 300 mM KCl; details: protein: recombinant; tags: 6xHis; label: 5' fluorescein; G4
T2 sequence: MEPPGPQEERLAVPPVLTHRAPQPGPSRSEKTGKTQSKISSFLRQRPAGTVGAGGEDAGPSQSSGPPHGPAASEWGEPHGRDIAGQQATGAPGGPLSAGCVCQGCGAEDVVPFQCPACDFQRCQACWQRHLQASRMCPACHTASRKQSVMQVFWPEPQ

RTEL1∆762 [3] = target: T1, RTEL1∆762; test: fluorescence anisotropy; RNA folded in 0 mM KCl; 20 mM Tris pH 7.5, 50 mM KCl, 0.5 mM TCEP, 0.5 mM MgCl2, 10% glycerol, 0.1% IGEPAL, room temperature 30 min; oligos refolded in 10 mM Tris pH 7.5, 100 mM KCl; EMSA legends give 150 or 300 mM KCl; details: protein: recombinant; tags: 6xHis; chain copies: 2; label: 5' fluorescein; no G4 (folded without KCl)
RTEL1∆762R1264H [4] = target: T3, RTEL1∆762R1264H (human, UniProt Q9NZ71-6 762-1300, R1264H); test: competition (fluorescence anisotropy); vs FAM-TERRA-MUT, 1 uM; 20 mM Tris pH 7.5, 50 mM KCl, 0.5 mM TCEP, 0.5 mM MgCl2, 10% glycerol, 0.1% IGEPAL, room temperature 30 min; oligos refolded in 10 mM Tris pH 7.5, 100 mM KCl; EMSA legends give 150 or 300 mM KCl; details: protein: recombinant, tags: 6xHis
T3 sequence: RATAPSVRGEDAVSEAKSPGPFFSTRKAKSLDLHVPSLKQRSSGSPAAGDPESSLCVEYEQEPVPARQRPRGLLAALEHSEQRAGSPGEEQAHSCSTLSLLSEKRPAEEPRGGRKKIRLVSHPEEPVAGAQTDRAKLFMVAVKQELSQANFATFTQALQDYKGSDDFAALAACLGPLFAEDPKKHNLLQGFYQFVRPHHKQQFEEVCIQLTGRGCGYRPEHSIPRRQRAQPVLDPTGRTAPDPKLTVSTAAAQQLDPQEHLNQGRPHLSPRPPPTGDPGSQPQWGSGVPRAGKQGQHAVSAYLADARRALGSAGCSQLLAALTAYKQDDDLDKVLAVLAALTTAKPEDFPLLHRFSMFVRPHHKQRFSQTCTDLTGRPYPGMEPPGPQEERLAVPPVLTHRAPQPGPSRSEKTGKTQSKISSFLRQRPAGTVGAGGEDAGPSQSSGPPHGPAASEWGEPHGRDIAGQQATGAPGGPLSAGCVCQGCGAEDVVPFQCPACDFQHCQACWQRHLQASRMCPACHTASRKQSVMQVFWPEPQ

RTEL1∆762 [5] = target: T1, RTEL1∆762; test: as above; details: protein: recombinant, tags: 6xHis, chain copies: 2
RTEL1∆762-1097 [6] = target: T4, RTEL1∆762-1097 (human, UniProt Q9NZ71-6 762-1097); test: as above; details: protein: recombinant, tags: 6xHis
T4 sequence: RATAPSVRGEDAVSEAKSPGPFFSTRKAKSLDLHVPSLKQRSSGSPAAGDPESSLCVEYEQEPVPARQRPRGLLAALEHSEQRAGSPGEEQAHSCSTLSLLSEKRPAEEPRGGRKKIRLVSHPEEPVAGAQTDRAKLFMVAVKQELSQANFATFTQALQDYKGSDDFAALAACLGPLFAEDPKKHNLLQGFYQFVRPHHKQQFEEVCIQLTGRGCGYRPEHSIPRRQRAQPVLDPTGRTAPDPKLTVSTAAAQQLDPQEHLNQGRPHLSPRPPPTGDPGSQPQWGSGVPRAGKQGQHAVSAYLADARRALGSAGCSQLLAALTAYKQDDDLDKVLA

RTEL1∆762R1264H [7] = target: T3, RTEL1∆762R1264H; test: competition (fluorescence anisotropy); vs FAM-TERRA-MUT, 200 nM; 20 mM Tris pH 7.5, 50 mM KCl, 0.5 mM TCEP, 0.5 mM MgCl2, 10% glycerol, 0.1% IGEPAL, room temperature 30 min; oligos refolded in 10 mM Tris pH 7.5, 100 mM KCl; EMSA legends give 150 or 300 mM KCl; details: protein: recombinant, tags: 6xHis
RTEL1∆762-1097 [8] = target: T4, RTEL1∆762-1097; test: as above; details: protein: recombinant, tags: 6xHis
RTEL1∆762 [9] = target: T1, RTEL1∆762; test: competition (fluorescence anisotropy); vs FAM-TERRA-MUT, 200 nM; error in main text misprinted as 0.74 nM; 20 mM Tris pH 7.5, 50 mM KCl, 0.5 mM TCEP, 0.5 mM MgCl2, 10% glycerol, 0.1% IGEPAL, room temperature 30 min; oligos refolded in 10 mM Tris pH 7.5, 100 mM KCl; EMSA legends give 150 or 300 mM KCl; details: protein: recombinant; tags: 6xHis; chain copies: 2; no G4
RTEL1∆762 [10] = target: T1, RTEL1∆762; test: competition (fluorescence anisotropy); vs FAM-TERRA-MUT, 200 nM; 20 mM Tris pH 7.5, 50 mM KCl, 0.5 mM TCEP, 0.5 mM MgCl2, 10% glycerol, 0.1% IGEPAL, room temperature 30 min; oligos refolded in 10 mM Tris pH 7.5, 100 mM KCl; EMSA legends give 150 or 300 mM KCl; details: protein: recombinant, tags: 6xHis, chain copies: 2
RTEL1∆762 [11] = target: T1, RTEL1∆762; test: fluorescence anisotropy; RNA folded in 100 mM KCl; 20 mM Tris pH 7.5, 50 mM KCl, 0.5 mM TCEP, 0.5 mM MgCl2, 10% glycerol, 0.1% IGEPAL, room temperature 30 min; oligos refolded in 10 mM Tris pH 7.5, 100 mM KCl; EMSA legends give 150 or 300 mM KCl; details: protein: recombinant; tags: 6xHis; chain copies: 2; label: 5' fluorescein; no G4
RTEL1∆762 [12] = target: T1, RTEL1∆762; test: fluorescence anisotropy; 20 mM Tris pH 7.5, 50 mM KCl, 0.5 mM TCEP, 0.5 mM MgCl2, 10% glycerol, 0.1% IGEPAL, room temperature 30 min; oligos refolded in 10 mM Tris pH 7.5, 100 mM KCl; EMSA legends give 150 or 300 mM KCl; details: protein: recombinant, tags: 6xHis, chain copies: 2, label: 5' fluorescein

B1: RTEL1^∆762 (human RTEL1 residues 762-1300, lacks the helicase domain) (domain or fragment, UniProt Q9NZ71-6 762-1300, looked up)
chain: RATAPSVRGEDAVSEAKSPGPFFSTRKAKSLDLHVPSLKQRSSGSPAAGDPESSLCVEYEQEPVPARQRPRGLLAALEHSEQRAGSPGEEQAHSCSTLSLLSEKRPAEEPRGGRKKIRLVSHPEEPVAGAQTDRAKLFMVAVKQELSQANFATFTQALQDYKGSDDFAALAACLGPLFAEDPKKHNLLQGFYQFVRPHHKQQFEEVCIQLTGRGCGYRPEHSIPRRQRAQPVLDPTGRTAPDPKLTVSTAAAQQLDPQEHLNQGRPHLSPRPPPTGDPGSQPQWGSGVPRAGKQGQHAVSAYLADARRALGSAGCSQLLAALTAYKQDDDLDKVLAVLAALTTAKPEDFPLLHRFSMFVRPHHKQRFSQTCTDLTGRPYPGMEPPGPQEERLAVPPVLTHRAPQPGPSRSEKTGKTQSKISSFLRQRPAGTVGAGGEDAGPSQSSGPPHGPAASEWGEPHGRDIAGQQATGAPGGPLSAGCVCQGCGAEDVVPFQCPACDFQRCQACWQRHLQASRMCPACHTASRKQSVMQVFWPEPQ
notes: residue numbers run to 1300; Cloned between EcoRI and XhoI of pET28; expected monomer mass printed as 62 kDa; source: E. coli BL21, purified (His-trap, Hi-Trap Q, Superdex 200)
For B1, which “stoichiometry N” value [1] is on record?
Its value is 2.

For UUAGGGUUAGGGUUAGGGUUAGGG (structured_RNA) [TERRA (FAM), folded in KCl], which Kd (RTEL1∆762 [2]) is on record?
Its Kd is 1.3 ± 3.6 nM.

Does UUAGGGUUAGGGUUAGGGUUAGGG (structured_RNA) [TERRA (FAM), folded in KCl] bind (RTEL1∆1143)?
Result: no binding

With UUAGGGUUAGGGUUAGGGUUAGGG (ssRNA) [TERRA (FAM), not folded (0 mM KCl)] as the binder, how does the Kd (RTEL1∆762 [3]) read?
Its Kd is 37.1 ± 9.6 nM.

For UUACCGUUACCGUUACCGUUACCG (ssRNA) [TERRA-MUT competitor], which Ki (RTEL1∆762R1264H [4]; no G4) is on record?
Its Ki is 3810 ± 1450 nM.

And the Ki (RTEL1∆762 [5]; no G4)?
Its Ki is 1450 ± 73 nM.

What about the Ki (RTEL1∆762-1097 [6]; no G4) of the same binder?
The Ki was 16100 ± 15000 nM.

And the Ki (RTEL1∆762R1264H [7]; no G4)?
Its Ki is 850 ± 125 nM.

What about the Ki (RTEL1∆762-1097 [8]; no G4) of the same binder?
Its Ki is 1650 ± 377 nM.

And the Ki (RTEL1∆762 [9])?
The Ki was 442 ± 74 nM.

How did the Ki (RTEL1∆762R1264H [4]; G4) turn out when GGTTAGGGTTAGGGTTAGGGTTAGGGTTAG (structured_DNA) [hTelo] was run?
Its Ki is 212 ± 17 nM.

And the Ki (RTEL1∆762 [5]; G4)?
The Ki was 74 ± 12 nM.

And the Ki (RTEL1∆762-1097 [6]; G4)?
The Ki was 1720 ± 302 nM.

And the Ki (RTEL1∆762R1264H [7]; G4)?
Its Ki is 47 ± 9 nM.

And the Ki (RTEL1∆762 [10]; G4)?
Its Ki is 29 ± 4 nM.

What about the Ki (RTEL1∆762-1097 [8]; G4) of the same binder?
Its Ki is 276 ± 39 nM.

Which results are given for GGTTACCGTTACCGTTACCGTTACCGTTAG (ssDNA) [hTelo-MUT]?
Ki (RTEL1∆762R1264H [4]; no G4): 1750 ± 520 nM; Ki (RTEL1∆762 [5]; no G4): 420 ± 140 nM; Ki (RTEL1∆762-1097 [6]; no G4): 12600 ± 8470 nM; Ki (RTEL1∆762R1264H [7]; no G4): 309 ± 68 nM; Ki (RTEL1∆762 [10]; no G4): 93 ± 11 nM; Ki (RTEL1∆762-1097 [8]; no G4): 826 ± 134 nM

Which Ki (RTEL1∆762R1264H [4]; G4) does the source give for UUAGGGUUAGGGUUAGGGUUAGGG (structured_RNA) [TERRA competitor] here?
Its Ki is 107 ± 14 nM.

And the Ki (RTEL1∆762 [5]; G4)?
Its Ki is 29 ± 4 nM.

And the Ki (RTEL1∆762-1097 [6]; G4)?
Its Ki is 978 ± 84 nM.

What about the Ki (RTEL1∆762R1264H [7]; G4) of the same binder?
The Ki was 30 ± 7 nM.

And the Ki (RTEL1∆762 [10]; G4)?
The Ki was 17 ± 3 nM.

And the Ki (RTEL1∆762-1097 [8]; G4)?
The Ki was 245 ± 35 nM.

For UUACCGUUACCGUUACCGUUACCG (ssRNA) [TERRA-MUT (FAM)], which Kd (RTEL1∆762 [11]) is on record?
Its Kd is 108 ± 21.6 nM.

For AUUAUUAUUAUUAUUAUUAUUAUU (ssRNA) [AU-rich 24mer], which Kd (RTEL1∆762 [12]; unstructured) is on record?
Its Kd is 42 ± 6.1 nM.

Which Kd (RTEL1∆762 [12]) does the source give for AAAAAAAAAAAAAAAAAAAAAAAA (ssRNA) [Poly A 24mer] here?
Its Kd is 498 ± 47.8 nM.
